T1: mouse VISTA-Fc (mouse) (UniProt Q9D659)
T1 sequence (looked up): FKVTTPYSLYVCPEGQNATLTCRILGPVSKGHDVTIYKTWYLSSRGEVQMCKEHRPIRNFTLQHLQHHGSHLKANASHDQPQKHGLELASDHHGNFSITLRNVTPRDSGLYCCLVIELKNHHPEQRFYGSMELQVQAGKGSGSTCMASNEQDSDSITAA


Biological target: T1, mouse VISTA-Fc (mouse)
Assay: monoclonal scFv phage ELISA, plate coated with 1 ug/ml VISTA-Fc, anti-M13-HRP

Binder	OD [OD]
3C5 monoclonal scFv phage (scFv, V domains shown) VH: QVQLVQSGAEVKKPGASVKLSCKASGYTFSSYWMHWVRQAPGQRLEWMGEINPGNGHTNYNEKFKSRVTITVDKSASTAYMELSSLRSEDTAVYYCAKDIAYYDFWSGDAFDLWGQGTMVTVSS VL: SYELTQPLSVSVSPGQTASITCSGDKLGNKYASWYQQKPGQSPVLVIYQDNKRPSGIPERFSGSNSGNTATLTISGTQATDEADYYCQTWDRSTGVFGTGTKVTVLG	0.106
1A12 monoclonal scFv phage (scFv, V domains shown) VH: QMQLVESGGGLVEPGRSLRLSCTTSGFSFHDYTMYWVRQVPGKGLEWVSLISWDGTITFYADPVRGRFTISRDNSKNSLYLQMNSLRAEDTAVYYCAKEDRYDYYSGAFDIWGQGTVVTVSS VL: QSALTQPRSVSGSPGQSVTISCTGTSSDVGGYDYVSWYQQHPGKAPKLILNDVNKRPSGVPDRFSGSKSGNTASLTISGLQPDDEADYYCSSFAGSNTLRVFGGGTKLTVLG	0.08
